According to patent US11434506B2, “Production of desaturated fatty alcohols and desaturated fatty alcohol acetates in yeast” (Danmarks Tekniske Universitet, priority 2016, dated 2022):

Key:
fall armyworm = conditions: applied alone, without other pheromone components; cited from earlier work
[1] = production of (Z)-9-tetradecen-1-yl acetate by S. cerevisiae CEN.PK102-5B strains, GC-MS; conditions: overexpression of desaturase, ST5290 versus ST4854
Experimental: The strains for production of pheromone were created on the basis of S. cerevisiae CEN.PK102-5B, which had active OLE1 and ELO1 genes.
Strains ST4854 and ST5290 were inoculated into 5 ml synthetic complete medium (lacking histidine, leucine, tryptophan supplemented with 20 mg/L uracil and 76 mg/L histidine) and cultivated in 12-ml glass tubes (Duran, Wertheim, Germany) with metal labocap lids (Lüdiswiss, Flawil, Switzerland) overnight at 30° C. with shaking at 250 rpm. The following day the overnight culture was centrifuged, the supernatant was discarded and the pellet was resuspended in 2 ml of mineral medium, which had the composition as described in (Jensen et al, 2014). The medium was supplemented with 76 mg/L histidine and 20 mg/L uracil. The cultures were incubated at 30° C. with shaking at 250 rpm for 48 hours.
1 mL sample of culture was transferred into a 4-mL glass vial and 10 μL of internal standard stock (1 μg/μl (Z)10-heptan-1-yl methyl ester in 100% ethanol) was added. The vials were covered with small pieces of aluminum foil and we used a needle to pierce small holes in the foil covers. The samples were vortexed and placed at −80° C. for storage until analysis. […] The concentration of (Z)-9-tetradecen-1-yl acetate was calculated based on internal standard.

C14-CoA substrate = experiment: activity and specificity of heterologous desaturases in yeast fed methyl myristate, FAMEs by GC-MS; format: cell-based, S. cerevisiae; conditions: among the tested desaturases

Molecule: CCCC/C=C\CCCCCCCCOC(C)=O [(Z)19-14:OAc, (Z)9-tetradecen-1-yl acetate]
- disruption of mating efficiency (fall armyworm): 86%

B1: D. melanogaster desaturase: Δ9 desaturase from Drosophila melanogaster Dmd9, SEQ ID NO: 10 (protein)
chain: MAPYSRIYHQDKSSRETGVLFEDDAQTVDSDLTTDRFQLKRAEKRRLPLVWRNIILFALVHLAALYGLHSIFTRAKLATTLFAAGLYIIGMLGVTAGAHRLWAHRTYKAKWPLRLLLVIFNTIAFQDAVYHWARDHRVHHKYSETDADPHNATRGFFFSHVGWLLCKKHPDIKEKGRGLDLSDLRADPILMFQRKHYYILMPLACFVLPTVIPMVYWNETLASSWFVATMFRWCFQLNMTWLVNSAAHKFGNRPYDKTMNPTQNAFVSAFTFGEGWHNYHHAFPWDYKTAEWGCYSLNITTAFIDLFAKIGWAYDLKTVAPDVIQRRVLRTGDGSHELWGWGDKDLTAEDARNVLLVDKSR
modifications: Drosophila melanogaster
- increase of titer of Z9:14:OAc [1]: more than 5 fold
- activity and specificity towards C14-CoA substrate (C14-CoA substrate): highest activity and specificity
